According to the Human Domainome abundance scans (Beltran et al. 2025):
± gives the uncertainty stated by the source.

B1: Far upstream element-binding protein 2, residues 142 to 214; numbered along this chain, Q92945 (parent)
chain: RTSMTEEYRVPDGMVGLIIGRGGEQINKIQQDSGCKVQISPDSGGLPERSVSLTGAPESVQKAKMMLDDIVSR

Variants of: B1
Assay: abundance fitness (aPCA) (normalised: wild type 0, dead -1); higher = more abundant; growth selection in yeast, the domain comes from the species named
Conditions: Homo sapiens

Variant | abundance fitness
I70D | -0.574 ± 0.073
I70S | -0.504 ± 0.051
I70Y | -0.153 ± 0.081
L53A | -0.817 ± 0.056
L53K | -1 ± 0.098
L53E | -0.869 ± 0.063
L53C | -0.379 ± 0.082
L53W | -0.994 ± 0.08
L53Y | -1.04 ± 0.23
L53R | -0.854 ± 0.048
L53N | -0.634 ± 0.18
T5D | -0.319 ± 0.055
T5P | -0.62 ± 0.047
T5C | -0.125 ± 0.055
L17Y | -0.147 ± 0.089
L17T | 0.045 ± 0.053
L17W | -0.111 ± 0.05
L17E | 0.074 ± 0.051
N27M | -0.085 ± 0.069
N27G | -0.137 ± 0.044
N27Q | -0.018 ± 0.053
G13W | -0.097 ± 0.051
G13I | -0.039 ± 0.08
G13R | 0.07 ± 0.037

Variant | abundance fitness
V71M | -0.037 ± 0.061
V71I | -0.057 ± 0.079
S33P | -1.01 ± 0.075
S33Y | -0.55 ± 0.097
S43E | -0.082 ± 0.053
S43L | -0.116 ± 0.048
S43P | -0.083 ± 0.044
Y8K | -0.417 ± 0.055
Y8S | -0.472 ± 0.046
Y8I | -0.061 ± 0.062
Y8G | -0.576 ± 0.036
Y8W | -0.007 ± 0.041
R49K | -0.092 ± 0.063
R49N | -0.104 ± 0.13
M66N | -0.688 ± 0.13
M66A | -0.185 ± 0.045
M66V | -0.456 ± 0.051
M66R | -0.512 ± 0.042
V51P | -0.847 ± 0.08
V51S | -0.837 ± 0.067
V51T | -0.704 ± 0.068
V51Q | -0.947 ± 0.11
V51W | -0.487 ± 0.055
D68N | -0.007 ± 0.061

Variant | abundance fitness
D68W | -0.62 ± 0.054
D68L | -0.564 ± 0.043
D68R | -0.126 ± 0.036
D68I | -0.494 ± 0.077
D68V | -0.456 ± 0.046
D68E | -0.06 ± 0.049
D68H | -0.241 ± 0.068
E48A | -0.063 ± 0.043
E48I | -0.157 ± 0.085
G20K | -0.401 ± 0.062
G20C | -1.28 ± 0.11
G20T | -0.59 ± 0.059
I29R | -0.995 ± 0.046
I29W | -0.981 ± 0.063
K62N | -0.449 ± 0.094
K62D | -0.663 ± 0.076
K62I | -0.126 ± 0.085
Q30K | -0.181 ± 0.065
Q30L | -0.241 ± 0.049
Q30M | 0.107 ± 0.066
K28Y | -0.337 ± 0.14
K28E | -0.243 ± 0.065
K28C | -0.597 ± 0.082
G23A | -0.149 ± 0.048

Variant | abundance fitness
G23W | -0.32 ± 0.051
G23S | -0.178 ± 0.05
Q31P | -0.98 ± 0.065
Q31K | -0.137 ± 0.08
Q31A | -0.109 ± 0.046
Q25H | -0.256 ± 0.099
G44K | 0.019 ± 0.071
G44A | -0.051 ± 0.045
G16E | 0.049 ± 0.053
G16K | -0.068 ± 0.056
G16S | -0.076 ± 0.043
G16C | -0.334 ± 0.06
S3F | 0.251 ± 0.073
S3G | 0.003 ± 0.036
S3A | 0.028 ± 0.04
S3T | 0.213 ± 0.045
G45M | -0.208 ± 0.063
G45S | -0.113 ± 0.05
V60I | 0.119 ± 0.073
V60A | -0.689 ± 0.05
V60K | -0.377 ± 0.069
V15P | -0.462 ± 0.064
V15R | -0.335 ± 0.05
V15Y | -0.197 ± 0.092

Variant | abundance fitness
E6G | -0.189 ± 0.034
E6V | 0.097 ± 0.039
E6I | -0.086 ± 0.069
E6K | -0.027 ± 0.05
E6R | -0.068 ± 0.035
Q61R | 0.013 ± 0.04
Q61H | -0.196 ± 0.11
Q61W | -0.176 ± 0.058
Q61I | -0.064 ± 0.095
V37T | -0.484 ± 0.069
V37N | -1.21 ± 0.17
V37M | -0.14 ± 0.065
V37R | -0.804 ± 0.045
V37Y | -0.974 ± 0.15
V37W | -0.916 ± 0.064
C35Y | -0.847 ± 0.12
C35E | -0.563 ± 0.054
C35T | -0.406 ± 0.058
C35G | -0.756 ± 0.042
C35H | -0.917 ± 0.13
L46E | -0.037 ± 0.049
L46K | 0.061 ± 0.063
L46F | -0.097 ± 0.067
D42R | -0.11 ± 0.039

Variant | abundance fitness
D42A | -0.013 ± 0.049
D42P | -0.006 ± 0.051
P47F | -0.14 ± 0.081
P47G | 0.002 ± 0.048
P47N | -0.13 ± 0.096
P47Y | -0.028 ± 0.09
P57S | -0.245 ± 0.05
P57F | -0.357 ± 0.084
P57V | -0.192 ± 0.049
P57A | -0.101 ± 0.049
P57L | -0.316 ± 0.049
V10E | -0.456 ± 0.051
V10S | -0.628 ± 0.047
V10P | -0.456 ± 0.059
V10N | -0.567 ± 0.081
V10R | -0.741 ± 0.044
G55K | -0.681 ± 0.093
G55C | -0.818 ± 0.1
G55A | -0.882 ± 0.064
G55N | -0.922 ± 0.25
G55Q | -0.875 ± 0.098
G55D | -0.83 ± 0.087
G55M | -1.18 ± 0.16
I19Y | 0.005 ± 0.081

Variant | abundance fitness
I19H | -0.17 ± 0.073
I19M | 0.096 ± 0.068
I19C | -0.114 ± 0.078
D69L | -0.143 ± 0.051
D69M | -0.13 ± 0.064
D69Y | -0.27 ± 0.09
D69G | -0.057 ± 0.04
G22E | -0.071 ± 0.055
G22I | -0.34 ± 0.082
G22K | -0.12 ± 0.07
S52G | -0.249 ± 0.04
T2C | -0.198 ± 0.08
T2W | -0.567 ± 0.06
T2H | -0.138 ± 0.088
T2K | -0.007 ± 0.065
T2Q | -0.421 ± 0.057
T2N | 0.109 ± 0.08
T2E | -0.025 ± 0.05
S50R | 0.018 ± 0.042
S50Y | -0.137 ± 0.085
S50D | -0.289 ± 0.074
S50V | -0.002 ± 0.046
S50E | -0.193 ± 0.059
